Source: US20140294821A1

Columns and labels:
[1] = biological target: human von Willebrand factor, FVIII-free, plasma derived (human) (UniProt P04275); assay: SPR (BIAcore), single-cycle kinetics 0.13-5.0 nM, plasma derived human vWF immobilized by amine coupling, 1:1 model, N=6
[2] = biological target: human von Willebrand factor, FVIII-free, plasma derived (human) (UniProt P04275); assay: SPR (BIAcore), binding to vWF
[3] = biological target: human von Willebrand factor, FVIII-free, plasma derived (human) (UniProt P04275); assay: SPR (BIAcore), hvWf as ligand, FVIII protein as analyte, N=5

| Kd [1] | koff [1] | kon [1] | fold difference in affinity (KD) against rBDD FVIII [2] | fold difference in on-rate against rBDD FVIII [2] | fold of KD against BDD FVIII alone [2] | Kd [3] | koff [3] | kon [3] | Substance |
| --- | --- | --- | --- | --- | --- | --- | --- | --- | --- |
| 340 pM | 0.00089 s⁻¹ | 2.6e+06 M⁻¹ s⁻¹ | 2 fold | 2 fold | 2 fold | 1640 pM | 0.00125 s⁻¹ | 792000 M⁻¹ s⁻¹ | rFVIIIFc (recombinant B-domain deleted human FVIII-Fc monomer hybrid), drug substance (from UniProt P00451 20-1667; P0DOX5 223-449) (Fc fusion) |
|  |  |  |  |  |  | 846 pM | 0.00114 s⁻¹ | 1.37e+06 M⁻¹ s⁻¹ | rBDD FVIII (recombinant B-domain deleted FVIII lacking Fc moieties) (from UniProt P00451 20-1667; P00451 1668-2351) |
